From patent publication US5232912

Molecular target: bovine thrombin (bovine) (UniProt P00735)

Fibrin Clot Inhibition | Substance
0.38 | Suc-Tyr-Glu-Pro-Ile-Azd-Glu-Glu-Ala-Cha-D-Glu-OH (peptide)
0.63 | Suc-Tyr-Glu-Pro-Ile-Tiq-Glu-Glu-Ala-Cha-D-Glu-OH (peptide)
0.51 | Suc-Tyr-Glu-Azd-Ile-Pro-Glu-Glu-Ala-Cha-D-Glu-OH (peptide)
1.9 | Suc-Tyr-Glu-Pip-Ile-Pro-Glu-Glu-Ala-Cha-D-Glu-OH (peptide)
0.82 | Suc-Tyr-Glu-Tiq-Ile-Pro-Glu-Glu-Ala-Cha-D-Glu-OH (peptide)
0.88 | Suc-Tyr-Glu-Pro-Ile-Pip-Glu-Glu-Ala-Cha-D-Glu-OH (peptide)
